Test results reported in paper doi:10.1101/2023.02.26.530074, “Atomic resolution structure of a DNA-binding histone protein from the bacterium Bdellovibrio bacteriovorus” (bioRxiv, 2023).

Target: the molecule itself
Test: SEC-MALS; HBb at 3 mg/mL, Superdex 75 Increase 10/300 GL, 20 mM Tris pH 8.0, 150 mM NaCl, 1 M urea, 0.5 mL/min

B1: histone protein HBb from Bdellovibrio bacteriovorus (natural protein)
chain: MAEVLVVTSKVKKLIKEKGQMNTSAETIDVLSKAIEQLCLKGVESAKADGRKTVMARDIVIDHL
notes: HBb, histone homolog of Bdellovibrio bacteriovorus HD100, UniProt Q6MRM1; 64 amino acid residues, single histone fold domain; the gene encoding HBb was codon-optimized, synthesized and cloned into pETHis1a; In the crystal the first three and last three amino acids are not resolved; also called bacterial histone HBb; Bd0055; source: E. coli Mutant56(DE3), purified (HisTrap, TEV cleavage, second …)
stoichiometry N: 2
